Measured values reported in paper PMC3212559, “Large-Scale Protein-Protein Interaction Analysis in Arabidopsis Mesophyll Protoplasts by Split Firefly Luciferase Complementation” (PLoS ONE, 2011).

Columns and labels:
Test in all cases: split reporter (BiFC, NanoBiT); SFLC in living Arabidopsis mesophyll protoplasts: Aux/IAA-FLucN or MYB30-FLucN co-expressed with ARFCTD-FLucC or Aux/IAA-FLucC for 6 hr; 10 µg of each construct, 2×10^4 cells, 96-well plate, D-luciferin; relative activity standardised against ARF5CTD-FLucC + IAA28-FLucN
Settings in all cases: partners not purified
IAA9-FLucC = biological target: T1, IAA9-FLucC (Arabidopsis, UniProt Q38827 1-338)
T1 construct: Arabidopsis Aux/IAA protein IAA9; also called Aux/IAA-FLucC; source: Arabidopsis mesophyll protoplasts, transfected, in living cells; not shown: FLucC (firefly luciferase aa 394-550)
T1 sequence (looked up): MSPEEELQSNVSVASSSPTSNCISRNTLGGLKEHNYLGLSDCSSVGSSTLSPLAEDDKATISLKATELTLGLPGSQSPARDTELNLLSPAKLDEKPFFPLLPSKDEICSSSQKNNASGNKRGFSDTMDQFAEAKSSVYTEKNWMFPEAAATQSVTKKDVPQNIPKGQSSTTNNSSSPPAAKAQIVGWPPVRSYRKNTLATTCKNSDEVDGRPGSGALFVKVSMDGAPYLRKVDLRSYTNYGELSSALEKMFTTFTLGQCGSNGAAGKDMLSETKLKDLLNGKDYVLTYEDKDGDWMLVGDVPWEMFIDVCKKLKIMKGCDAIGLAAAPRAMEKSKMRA

[1] = biological target: T2, ARF6 C-terminal domain (CTD)-FLucC (Arabidopsis, UniProt Q9ZTX8 796-935)
T2 construct: In the ARF-ARF tests the same CTD stood both as ARFCTD-FLucC and as ARFCTD-FLucN; one molecule for both; also called ARF6CTD-FLucC; ARFCTD-FLucC; source: Arabidopsis mesophyll protoplasts, transfected, in living cells (SFLC) and in lysate (co-IP); not shown: FLucC (firefly luciferase aa 394-550)
T2 sequence (looked up): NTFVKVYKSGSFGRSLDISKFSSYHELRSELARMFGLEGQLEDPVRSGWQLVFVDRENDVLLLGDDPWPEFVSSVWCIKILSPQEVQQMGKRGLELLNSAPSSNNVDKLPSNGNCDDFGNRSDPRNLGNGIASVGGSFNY

[2] = biological target: T3, ARF4 C-terminal domain (CTD)-FLucC (Arabidopsis, UniProt Q9ZTX9 665-788)
T3 construct: Arabidopsis auxin response factor 4, C-terminal dimerization domain (CTD); In the ARF-ARF tests the same CTD stood both as ARFCTD-FLucC and as ARFCTD-FLucN; one molecule for both; also called ARF4CTD-FLucC; ARFCTD-FLucC; source: Arabidopsis mesophyll protoplasts, transfected, in living cells (SFLC) and in lysate (co-IP); not shown: FLucC (firefly luciferase aa 394-550)
T3 sequence (looked up): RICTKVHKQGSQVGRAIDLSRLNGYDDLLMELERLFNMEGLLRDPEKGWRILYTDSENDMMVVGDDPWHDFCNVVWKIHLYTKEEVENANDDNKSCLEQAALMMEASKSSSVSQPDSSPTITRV

IAA7-FLucC = biological target: T4, IAA7-FLucC (Arabidopsis, UniProt Q38825 1-243)
T4 construct: Arabidopsis Aux/IAA protein IAA7; also called Aux/IAA-FLucC; source: Arabidopsis mesophyll protoplasts, transfected, in living cells; not shown: FLucC (firefly luciferase aa 394-550)
T4 sequence (looked up): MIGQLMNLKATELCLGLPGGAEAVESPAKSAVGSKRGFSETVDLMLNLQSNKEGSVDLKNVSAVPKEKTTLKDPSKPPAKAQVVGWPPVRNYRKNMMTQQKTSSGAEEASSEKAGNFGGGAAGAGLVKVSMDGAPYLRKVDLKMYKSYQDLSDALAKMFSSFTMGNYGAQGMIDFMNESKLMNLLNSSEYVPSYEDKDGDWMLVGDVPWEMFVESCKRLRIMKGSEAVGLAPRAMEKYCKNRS

IAA6-FLucC = biological target: T5, IAA6-FLucC (Arabidopsis, UniProt Q38824 1-189)
T5 construct: Arabidopsis Aux/IAA protein IAA6; also called Aux/IAA-FLucC; source: Arabidopsis mesophyll protoplasts, transfected, in living cells; not shown: FLucC (firefly luciferase aa 394-550)
T5 sequence (looked up): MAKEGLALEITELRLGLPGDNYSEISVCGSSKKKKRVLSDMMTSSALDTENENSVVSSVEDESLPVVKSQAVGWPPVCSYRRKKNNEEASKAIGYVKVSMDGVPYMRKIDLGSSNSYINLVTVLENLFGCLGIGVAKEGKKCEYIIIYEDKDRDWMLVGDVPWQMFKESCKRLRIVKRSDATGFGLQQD

Measured: relative luciferase activity (standardised against ARF5CTD-FLucC + IAA28-FLucN)

B1: MYB30-FLucN (natural protein, UniProt Q9SCU7 1-323, looked up)
chain: MVRPPCCDKGGVKKGPWTPEEDIILVTYIQEHGPGNWRAVPTNTGLLRCSKSCRLRWTNYLRPGIKRGNFTEHEEKMIVHLQALLGNRWAAIASYLPQRTDNDIKNYWNTHLKKKLNKVNQDSHQELDRSSLSSSPSSSSANSNSNISRGQWERRLQTDIHLAKKALSEALSPAVAPIITSTVTTTSSSAESRRSTSSASGFLRTQETSTTYASSTENIAKLLKGWVKNSPKTQNSADQIASTEVKEVIKSDDGKECAGAFQSFSEFDHSYQQAGVSPDHETKPDITGCCSNQSQWSLFEKWLFEDSGGQIGDILLDENTNFF
notes: transcription factor MYB30, the unrelated protein used as negative control; source: Arabidopsis mesophyll protoplasts, transfected, in living cells; not shown: FLucN (firefly luciferase aa 1-398)
< 0.1: all assays above
